Data reported in patent US20080292620A1.

T1: human prolactin receptor (PRLR), full length on cells (human) (UniProt P16471)
T1 sequence: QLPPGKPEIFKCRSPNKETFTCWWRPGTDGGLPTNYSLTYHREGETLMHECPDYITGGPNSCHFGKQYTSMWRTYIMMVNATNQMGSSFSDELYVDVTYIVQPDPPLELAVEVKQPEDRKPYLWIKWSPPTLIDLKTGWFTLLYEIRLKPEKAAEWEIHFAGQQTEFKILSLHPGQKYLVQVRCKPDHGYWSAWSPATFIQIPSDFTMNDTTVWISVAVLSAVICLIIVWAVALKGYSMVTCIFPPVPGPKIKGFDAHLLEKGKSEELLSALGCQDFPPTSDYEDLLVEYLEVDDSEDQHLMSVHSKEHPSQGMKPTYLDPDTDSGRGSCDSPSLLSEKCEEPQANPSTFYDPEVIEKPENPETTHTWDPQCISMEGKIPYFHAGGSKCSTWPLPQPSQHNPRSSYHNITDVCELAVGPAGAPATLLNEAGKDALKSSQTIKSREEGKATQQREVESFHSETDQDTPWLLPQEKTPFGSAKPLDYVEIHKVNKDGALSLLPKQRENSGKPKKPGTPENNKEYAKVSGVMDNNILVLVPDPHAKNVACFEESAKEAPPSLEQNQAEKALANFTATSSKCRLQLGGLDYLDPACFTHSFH

B1: XHA.06.983 (antibody, from another filing, V domains shown)
VH: DVQLVESGGGLVQPGGSRKLSCAASGFAFSSFGMQWVRQAPEKGLEWVAYISSGSSTIYYADTVKGRFTISRDNPKNTLFLQMTSLRSEDTAMYYCVRSGRDYWGQGTSVTVSS
VL: SIVMTQTPKFLLVSAGDRVTITCKASQGVSNDVAWFQQKPGQSPKLLIYSASTRYTGVPDRLTGSGYGTDFTFTINTVQAEDLAVYFCQQDYTSPTFGGGTKLEIKR
B2: XHA.06.642 (antibody, from another filing, V domains shown)
VH: EVQLVESGGDLVKPGGSLKLSCAVSGFTFSSYGMSWVRQTPDKRLEWVATVSSGGTYTYYPDSVKGRFTISRDNAKNTLYLQMSSLKSEDSAMYYCARHRGNYYATYYYAMDYWGQGTSVTVSS
VL: DIVLTQSPASLAVSLGQGATISCRASKSVSTSGYTYMHWYQQKPGQPPKLLIYLASNLESGVPARFSGSGSGTDFTLNIHPVEEEDAATYYCQHSGELPPSFGGGTKLEIKR

Assays:
[1] = molecular target: T1, human prolactin receptor (PRLR), full length on cells (human); experiment: cell-based or functional assay
[2] = molecular target: recombinant extracellular domain (ECD) of the human prolactin receptor (PRLR) (human) (UniProt P16471); experiment: Biacore SPR, procedures similar to Table 6, PRLR ECD
[3] = molecular target: recombinant extracellular domain (ECD) of the human prolactin receptor (PRLR) (human) (UniProt P16471); experiment: Biacore 2000 SPR, antibody captured, PRLR ECD injected

Binder	Proliferation inhibition IC50 for BaF3/PRLR [1]	pERK1/2 inhibition IC50 (prolactin-stimulated T47D cells) [1]	Kd [2]	Kd [3]
B1	0.1	0.11	0.043 nM	0.1 nM
B2	–	–	0.934 nM	–
